B1: NR2E3 LBD (residues 192-410), wild type, as Gal4DBD–NR2E3LBD and VP16AD–NR2E3LBD [human] / itself (parent complex)
chain: DENIDVTSNDPEFPSSPYSSSSPCGLDSIHETSARLLFMAVKWAKNLPVFSSLPFRDQVILLEEAWSELFLLGAIQWSLPLDSCPLLAPPEASAAGGAQGRLTLASMETRVLQETISRFRALAVDPTEFACMKALVLFKPETRGLKDPEHVEALQDQSQVMLSQHSKAHHPSQPVRFGKLLLLLPSLRFITAERIELLFFRKTIGNTPMEKLLCDMFKN

Variants of: B1
Assay: mammalian two hybrid assay; pBind-PNR L375R + pACT-PNR L375R; parent: 0.42; read off a plot

| response [RLU] | Variant |
| --- | --- |
| ~0.045 | DENIDVTSNDPEFPSSPYSSSSPCGLDSIHETSARLLFMAVKWAKNLPVFSSLPFRDQVILLEEAWSELFLLGAIQWSLPLDSCPLLAPPEASAAGGAQGRLTLASMETRVLQETISRFRALAVDPTEFACMKALVLFKPETRGLKDPEHVEALQDQSQVMLSQHSKAHHPSQPVRFGKLLLLRPSLRFITAERIELLFFRKTIGNTPMEKLLCDMFKN [chain 1 L184R] |

Variants of: B1
Assay: mammalian two hybrid assay; pBind-PNR L372/375R + pACT-PNR L372/375R; parent: 0.42; read off a plot

| response [RLU] | Variant |
| --- | --- |
| ~0.055 | DENIDVTSNDPEFPSSPYSSSSPCGLDSIHETSARLLFMAVKWAKNLPVFSSLPFRDQVILLEEAWSELFLLGAIQWSLPLDSCPLLAPPEASAAGGAQGRLTLASMETRVLQETISRFRALAVDPTEFACMKALVLFKPETRGLKDPEHVEALQDQSQVMLSQHSKAHHPSQPVRFGKLRLLRPSLRFITAERIELLFFRKTIGNTPMEKLLCDMFKN [chain 1 L181R, chain 1 L184R] |

Variants of: B1
Assay: mammalian two hybrid assay; pBind-PNR L372R + pACT-PNR L372R; parent: 0.42; read off a plot

| response [RLU] | Variant |
| --- | --- |
| ~0.045 | DENIDVTSNDPEFPSSPYSSSSPCGLDSIHETSARLLFMAVKWAKNLPVFSSLPFRDQVILLEEAWSELFLLGAIQWSLPLDSCPLLAPPEASAAGGAQGRLTLASMETRVLQETISRFRALAVDPTEFACMKALVLFKPETRGLKDPEHVEALQDQSQVMLSQHSKAHHPSQPVRFGKLRLLLPSLRFITAERIELLFFRKTIGNTPMEKLLCDMFKN [chain 1 L181R] |

— paper PMC3771917, “The Crystal Structure of the Orphan Nuclear Receptor NR2E3/PNR Ligand Binding Domain Reveals a Dimeric Auto-Repressed Conformation” (PLoS ONE, 2013)
